Changes are numbered by the printed parent chain.

For experiment [1], the target named is T1, Muc1 mucin bearing the CA6 sialoglycotope (DS6 antigen), as expressed by CA6-positive human tumour cell lines (human, UniProt P15941 24-1255, CA6 epitope: sialic acid-dependent glycotope on sialylated O-linked carbohydrate chains; sites not stated).
T1 construct: whole, on cells; Flow cytometry used whole cells; dot blots, immunoprecipitation and western blots used cell lysates; also called CA6 antigen; >250 kDa band
Briefly: flow cytometry competition; competitor 2 nM biotin-muDS6, streptavidin-DTAF (called apparent EC50 in paragraph 357).

For experiment [2], the target named is T1, Muc1 mucin bearing the CA6 …. Put plainly: flow cytometry, direct binding to KB cells; apparent Kd. As to the method: In the first set of experiments direct binding to a CA6-expressing cell line, KB, was measured.
For experiment [3] the target is unchanged. Put plainly: cell-based or functional assay.

B1: murine DS6 anti-CA6 monoclonal antibody (antibody, V domains shown)
VH: QAYLQQSGAELVRSGASVKMSCKASGYTFTSYNMHWVKQTPGQGLEWIGYIYPGNGATNYNQKFKGKATLTADPSSSTAYMQISSLTSEDSAVYFCARGDSVPFAYWGQGTLVTVSA
VL: QIVLTQSPAIMSASPGEKVTITCSAHSSVSFMHWFQQKPGTSPKLWIYSTSSLASGVPARFGGSGSGTSYSLTISRMEAEDAATYYCQQRSSFPLTFGAGTKLELKR
notes: Murine monoclonal IgG purified from the hybridoma (ATCC PTA-4449); also called muDS6; DS6 antibody
Turning to B1, the IC50 in experiment [1] was 1.9 nM.

B2: chimeric DS6 antibody (antibody, V domains shown)
VH: B1 VH
VL: B1 VL
notes: also called chDS6
With B2, the concentration for half-maximal inhibition (IC50) in experiment [1] was 1.7 nM.

B3: humanized DS6 antibody version 1.01 (antibody, V domains shown)
VH: B1 VH with Y3Q, Q5V, L11V, R13K, S14P, K65Q, P74T
VL: B1 VL with Q1E, I10T, K18R, R76S
notes: also called huDS6v1.01; huDS6 v1.01
Consider B3, for which the Kd in experiment [2] was 0.82 nM. The IC50 in experiment [1] is 3 nM.

B4: humanized DS6 antibody version 1.21 (antibody, V domains shown)
VH: B1 VH with Y3Q, Q5V, L11V, R13K, S14P, K65Q
VL: B1 VL with Q1E, I10T, K18R, R76S
notes: also called huDS6v1.21; huDS6 v1.21
In the case of B4, in experiment [2], the Kd stood at 0.85 nM. Moreover, in experiment [1], the IC50 was 1.9 nM.

B5: huDS6v1.01-SPDB-DM4 conjugate (antibody, human IgG1, V domains shown)
VH: B1 VH with Y3Q, Q5V, L11V, R13K, S14P, K65Q, P74T
VL: B1 VL with Q1E, I10T, K18R, R76S
modifications: DM4 maytansinoid via SPDB disulfide linker, 3.2 DM4 per antibody; sites not stated
Take B5: the “in vitro cytotoxicity (MTT), WISH cells, IC50” value in experiment [3] was determined as 0.44 nM.

By IC50 is commonly meant the concentration that gives 50% inhibition.

The values are drawn from patent US20160355605A1 (published 2016).
